Test results as given in article PMC5055751 (Nature chemical biology, 2016).

Test system: mouse embryonic fibroblasts (MEFs)
Experiment: Cellular uptake of FITC-peptides by ImageXpress high-content microscopy
Conditions: MEFs 2×10^4 cells, 0% FBS, dose varied; text 2 hours, legend 4 hr

BIM BH3_1: unmodified template peptide FITC-BIM BH3_1 (aa 146–166)
TIFI versus FITC-peptide dose, result in words: linear, dose-responsive increase in TIFI
